In the series the target is T1, MutS (MutSt) (UniProt Q56215 Q56215:1-811).
T1 sequence: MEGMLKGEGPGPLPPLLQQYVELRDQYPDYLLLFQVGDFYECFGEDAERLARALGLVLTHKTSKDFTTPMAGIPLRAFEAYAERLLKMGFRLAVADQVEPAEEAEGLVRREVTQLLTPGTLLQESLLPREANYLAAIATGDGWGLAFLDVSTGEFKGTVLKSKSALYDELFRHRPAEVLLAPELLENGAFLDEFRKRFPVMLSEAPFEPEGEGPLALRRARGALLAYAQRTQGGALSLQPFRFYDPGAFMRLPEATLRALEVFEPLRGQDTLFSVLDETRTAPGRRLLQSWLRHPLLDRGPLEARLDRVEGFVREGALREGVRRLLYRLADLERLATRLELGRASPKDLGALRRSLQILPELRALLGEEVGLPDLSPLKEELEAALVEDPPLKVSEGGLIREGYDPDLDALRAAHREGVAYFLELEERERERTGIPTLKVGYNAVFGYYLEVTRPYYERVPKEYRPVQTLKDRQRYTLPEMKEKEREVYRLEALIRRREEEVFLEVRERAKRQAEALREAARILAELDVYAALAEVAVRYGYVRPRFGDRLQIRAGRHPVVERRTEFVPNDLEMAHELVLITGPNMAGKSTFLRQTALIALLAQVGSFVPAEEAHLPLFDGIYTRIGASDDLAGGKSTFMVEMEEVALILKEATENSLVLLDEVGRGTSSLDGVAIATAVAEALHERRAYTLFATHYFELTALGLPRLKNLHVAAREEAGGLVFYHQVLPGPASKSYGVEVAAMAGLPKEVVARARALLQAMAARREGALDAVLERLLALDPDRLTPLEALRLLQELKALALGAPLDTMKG
The series is described as follows: EMSA; 10 mM Tris-HCl pH 8.8, 5 mM MgCl2, 0.1% Triton X-100, 37 C; preferred over wt; tenfold unlabeled del20 competes, proteinase K removes shift. The note with it: tags: Epicenter Technologies, Madison, Wis; label: 5' fluorescein on anti-sense strand; single unpaired base (deletion at position 20 of anti-sense). Here is the method:
In a typical reaction 80 pmols of unlabeled sense strand were mixed with 40 pmols of Cy5 labeled anti-sense strand and 40 pmols of fluorescein labeled mutant strand (del20 or C>A) in 1× Muts buffer ( 10 mM Tris-HCl pH 8.8, 5 mM MgCl₂, 0.1% TritonX-100). The mixture was annealed in a thermocycler after being first denatured at 95° C. for 5 minutes. The mixture was then cooled at 0.2° C./sec until temperature reaches 25° C. The duplex DNA thus created is illustrated in FIG. 5.
2 or 6 μg of MutSₜ protein (Epicenter Technologies, Madison, Wis.) was added to the annealed oligonucleotides. The mixture was then incubated at 37° C. for 30 minutes.
On the technique in general: Mobility shift assays separate free from complexed probe on a gel.

B1: GFPuv 351-390 del20 heteroduplex (dsDNA)
DNA 1: GTTAATGGGCACAAATTTTCTGTCAGTGGAGAGGGTGAAG
DNA 2: CTTCACCCTCTCCACTGACGAAAATTTGTGCCCATTAAC
On to B1, for which the binding result was “binds”.

The values are drawn from patent publication US20040132029, “Method of error reduction in nucleic acid populations” (published 2004).
